In PMC3902948 one finds Km and Vmax data, which are given here for three proteins.

As usually defined, the Km is the concentration of substrate that gives half-maximal velocity. The Vmax is the top rate of the reaction or transport when substrate is in excess.

To fix the notation:
B1: Prp43 (Saccharomyces cerevisiae S288C) (protein)
chain: MGSKRRFSSEHPDPVETSIPEQAAEIAEELSKQHPLPSEEPLVHHDAGEFKGLQRHHTSAEEAQKLEDGKINPFTGREFTPKYVDILKIRRELPVHAQRDEFLKLYQNNQIMVFVGETGSGKTTQIPQFVLFDEMPHLENTQVACTQPRRVAAMSVAQRVAEEMDVKLGEEVGYSIRFENKTSNKTILKYMTDGMLLREAMEDHDLSRYSCIILDEAHERTLATDILMGLLKQVVKRRPDLKIIIMSATLDAEKFQRYFNDAPLLAVPGRTYPVELYYTPEFQRDYLDSAIRTVLQIHATEEAGDILLFLTGEDEIEDAVRKISLEGDQLVREEGCGPLSVYPLYGSLPPHQQQRIFEPAPESHNGRPGRKVVISTNIAETSLTIDGIVYVVDPGFSKQKVYNPRIRVESLLVSPISKASAQQRAGRAGRTRPGKCFRLYTEEAFQKELIEQSYPEILRSNLSSTVLELKKLGIDDLVHFDFMDPPAPETMMRALEELNYLACLDDEGNLTPLGRLASQFPLDPMLAVMLIGSFEFQCSQEILTIVAMLSVPNVFIRPTKDKKRADDAKNIFAHPDGDHITLLNVYHAFKSDEAYEYGIHKWCRDHYLNYRSLSAADNIRSQLERLMNRYNLELNTTDYESPKYFDNIRKALASGFFMQVAKKRSGAKGYITVKDNQDVLIHPSTVLGHDAEWVIYNEFVLTSKNYIRTVTSVRPEWLIEIAPAYYDLSNFQKGDVKLSLERIKEKVDRLNELKQGKNKKKSKHSKK
B2: Prp43/Ntr1(51–110) (Saccharomyces cerevisiae S288C) (protein)
chain: MGSKRRFSSEHPDPVETSIPEQAAEIAEELSKQHPLPSEEPLVHHDAGEFKGLQRHHTSAEEAQKLEDGKINPFTGREFTPKYVDILKIRRELPVHAQRDEFLKLYQNNQIMVFVGETGSGKTTQIPQFVLFDEMPHLENTQVACTQPRRVAAMSVAQRVAEEMDVKLGEEVGYSIRFENKTSNKTILKYMTDGMLLREAMEDHDLSRYSCIILDEAHERTLATDILMGLLKQVVKRRPDLKIIIMSATLDAEKFQRYFNDAPLLAVPGRTYPVELYYTPEFQRDYLDSAIRTVLQIHATEEAGDILLFLTGEDEIEDAVRKISLEGDQLVREEGCGPLSVYPLYGSLPPHQQQRIFEPAPESHNGRPGRKVVISTNIAETSLTIDGIVYVVDPGFSKQKVYNPRIRVESLLVSPISKASAQQRAGRAGRTRPGKCFRLYTEEAFQKELIEQSYPEILRSNLSSTVLELKKLGIDDLVHFDFMDPPAPETMMRALEELNYLACLDDEGNLTPLGRLASQFPLDPMLAVMLIGSFEFQCSQEILTIVAMLSVPNVFIRPTKDKKRADDAKNIFAHPDGDHITLLNVYHAFKSDEAYEYGIHKWCRDHYLNYRSLSAADNIRSQLERLMNRYNLELNTTDYESPKYFDNIRKALASGFFMQVAKKRSGAKGYITVKDNQDVLIHPSTVLGHDAEWVIYNEFVLTSKNYIRTVTSVRPEWLIEIAPAYYDLSNFQKGDVKLSLERIKEKVDRLNELKQGKNKKKSKHSKK
B3: Prp43/Ntr1(1–120) (Saccharomyces cerevisiae S288C) (protein)
chain: MGSKRRFSSEHPDPVETSIPEQAAEIAEELSKQHPLPSEEPLVHHDAGEFKGLQRHHTSAEEAQKLEDGKINPFTGREFTPKYVDILKIRRELPVHAQRDEFLKLYQNNQIMVFVGETGSGKTTQIPQFVLFDEMPHLENTQVACTQPRRVAAMSVAQRVAEEMDVKLGEEVGYSIRFENKTSNKTILKYMTDGMLLREAMEDHDLSRYSCIILDEAHERTLATDILMGLLKQVVKRRPDLKIIIMSATLDAEKFQRYFNDAPLLAVPGRTYPVELYYTPEFQRDYLDSAIRTVLQIHATEEAGDILLFLTGEDEIEDAVRKISLEGDQLVREEGCGPLSVYPLYGSLPPHQQQRIFEPAPESHNGRPGRKVVISTNIAETSLTIDGIVYVVDPGFSKQKVYNPRIRVESLLVSPISKASAQQRAGRAGRTRPGKCFRLYTEEAFQKELIEQSYPEILRSNLSSTVLELKKLGIDDLVHFDFMDPPAPETMMRALEELNYLACLDDEGNLTPLGRLASQFPLDPMLAVMLIGSFEFQCSQEILTIVAMLSVPNVFIRPTKDKKRADDAKNIFAHPDGDHITLLNVYHAFKSDEAYEYGIHKWCRDHYLNYRSLSAADNIRSQLERLMNRYNLELNTTDYESPKYFDNIRKALASGFFMQVAKKRSGAKGYITVKDNQDVLIHPSTVLGHDAEWVIYNEFVLTSKNYIRTVTSVRPEWLIEIAPAYYDLSNFQKGDVKLSLERIKEKVDRLNELKQGKNKKKSKHSKK

Substrate in the data set: Nc1ncnc2c1ncn2[C@@H]1O[C@H](COP(=O)(O)OP(=O)(O)OP(=O)(O)O)[C@@H](O)[C@H]1O
As to the kind of experiment: purified protein. To be noted: no RNA, 100 mM NaCl, 10 mM Tris pH 7.5, 2 mM MgCl2.
Take B1: the Km came to 11.07 ± 2.07 µM and the Vmax was determined as 2.43 µM/min.

For B2, the Km was found to be 13.42 ± 1.93 µM and the Vmax was found to be 9.54 µM/min.

B3: the Km was 16.37 ± 1.81 µM and the Vmax came to 11.2 µM/min.
